Assay results from article PMC3384007, “Crystal Structure of the VapBC Toxin–Antitoxin Complex from Shigella flexneri Reveals a Hetero-Octameric DNA-Binding Assembly” (Journal of Molecular Biology, 2011).

What was measured:
[1] = target: T1, VapBC complex (VapB:His6-VapC), hetero-octamer VapB4C4 (Shigella flexneri (plasmid pMYSH6000), UniProt O06663;O06662 1-75;1-132); assay: EMSA; single shift, highest affinity site; 2.5 ng/ul VapBC, 0.1 mg/ml salmon sperm DNA; settings: protein: recombinant; tags: His6 on VapC; chain copies: 4;4; label: 5'-32P on SF-EMSA2-f; blunt
T1 sequence 1: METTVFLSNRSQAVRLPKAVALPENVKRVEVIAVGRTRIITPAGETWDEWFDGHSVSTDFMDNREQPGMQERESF
T1 sequence 2: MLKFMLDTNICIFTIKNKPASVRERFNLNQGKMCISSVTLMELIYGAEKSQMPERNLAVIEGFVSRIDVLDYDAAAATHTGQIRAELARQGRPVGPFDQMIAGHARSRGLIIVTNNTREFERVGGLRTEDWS

[2] = target: the molecule itself; assay: cross-linking; purified VapBC complex 1 mg/ml in 100 mM sodium borate pH 9.1 with dimethyl superimidate (DMSI), aliquots after 5-120 min, 15% Coomassie-stained SDS-PAGE
[3] = target: the molecule itself; assay: crystal structure; His6-VapB:VapC complex, 7 mg/ml; crystals in 0.1 M Bis-Tris pH 5.5, 1 M ammonium sulfate, 0.5% (v/v) PEG 3350, 19 °C; 2.7 Å; four copies of each protein in the asymmetric unit (VapB4C4)

B1: DNA III (dsDNA)
DNA 1: ATAAACGTATATCCCTTTGACATATCCCGG
DNA 2: CCGGGATATGTCAAAGGGATATACGTTTAT
[1]
  binding result: binds

B2: Shigella flexneri VapB antitoxin (His6-VapB) (natural protein, UniProt O06663 1-75, looked up)
chain: METTVFLSNRSQAVRLPKAVALPENVKRVEVIAVGRTRIITPAGETWDEWFDGHSVSTDFMDNREQPGMQERESF
notes: VapB antitoxin of the vapBC locus of the Shigella flexneri 2a virulence plasmid pMYSH6000; gene optimized for expression; No cleavage of the tag is described; In the assembly four copies of VapB stand with four of VapC (VapB4C4)
[2]
  stoichiometry N: 4
[3]
  stoichiometry N: 2

B3: Shigella flexneri VapC toxin (MvpT) (natural protein)
chain: MLKFMLDTNICIFTIKNKPASVRERFNLNQGKMCISSVTLMELIYGAEKSQMPERNLAVIEGFVSRIDVLDYDAAAATHTGQIRAELARQGRPVGPFDQMIAGHARSRGLIIVTNNTREFERVGGLRTEDWS
notes: Untagged in this construct, purified through His6-VapB; also called PIN domain
[2]
  stoichiometry N: 4
